Residue numbers refer to the chain shown, from its start. Names and notes keep the numbering of the source.

T1: human G-CSF receptor (human, UniProt Q99062 25-836)
T1 sequence (looked up): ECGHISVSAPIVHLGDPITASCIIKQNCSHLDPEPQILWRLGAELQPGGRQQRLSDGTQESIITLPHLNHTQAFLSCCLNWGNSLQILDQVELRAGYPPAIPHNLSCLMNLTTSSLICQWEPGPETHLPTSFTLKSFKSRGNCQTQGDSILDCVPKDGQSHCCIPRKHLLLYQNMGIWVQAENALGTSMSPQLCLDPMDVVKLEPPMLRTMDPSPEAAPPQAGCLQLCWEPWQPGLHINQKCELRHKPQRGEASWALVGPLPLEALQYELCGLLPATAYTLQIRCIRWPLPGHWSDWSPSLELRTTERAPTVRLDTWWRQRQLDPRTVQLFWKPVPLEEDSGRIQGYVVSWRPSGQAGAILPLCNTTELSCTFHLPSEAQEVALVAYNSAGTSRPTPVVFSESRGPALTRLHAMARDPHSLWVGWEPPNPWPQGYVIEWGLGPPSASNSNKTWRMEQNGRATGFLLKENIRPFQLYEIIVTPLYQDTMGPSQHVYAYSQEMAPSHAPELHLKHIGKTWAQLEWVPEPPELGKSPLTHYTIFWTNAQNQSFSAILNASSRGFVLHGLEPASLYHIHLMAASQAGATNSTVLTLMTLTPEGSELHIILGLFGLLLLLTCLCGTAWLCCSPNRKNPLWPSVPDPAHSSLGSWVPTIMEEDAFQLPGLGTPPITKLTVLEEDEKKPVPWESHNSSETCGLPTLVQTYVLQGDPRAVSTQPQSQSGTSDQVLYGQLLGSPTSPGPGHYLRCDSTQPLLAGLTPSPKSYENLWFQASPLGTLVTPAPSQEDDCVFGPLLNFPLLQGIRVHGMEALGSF

B1: G-CSF without N-terminal Histidine tag, non-conjugated (ligand)
chain: TPLGPASSLPQSFLLKCLEQVRKIQGDGAALQEKLCATYKLCHPEELVLLGHSLGIPWAPLSSCPSQALQLAGCLSQLHSGLFLYQGLLQALEGISPELGPTLDTLQLDVADFATTIWQQMEELGMAPALQPTQGAMPAFASAFQRRAGGVLVASHLQSFLEVSYRVLRHLAQP
B2: G-CSF without N-terminal Histidine tag conjugated to SPA-PEG 5000 (ligand)
chain: B1 chain
modifications: SPA-PEG 5000 conjugated to the available PEGylation sites
B3: G-CSF variant K16/34/40R S53K conjugated to SPA-PEG 5000 (ligand)
chain: B1 chain with K16R, K34R, K40R, S53K
modifications: SPA-PEG 5000 conjugated to the available PEGylation sites
B4: G-CSF variant K16/34/40R E46K, non-conjugated (ligand)
chain: B1 chain with K16R, K34R, K40R, E46K
B5: G-CSF variant K16/23/40R conjugated to SPA-PEG 5000 (ligand)
chain: B1 chain with K16R, K23R, K40R
modifications: SPA-PEG 5000 conjugated to the available PEGylation sites
B6: G-CSF variant K16/23/34/40R conjugated to SPA-PEG 5000 (ligand)
chain: B1 chain with K16R, K23R, K34R, K40R
modifications: SPA-PEG 5000 conjugated to the available PEGylation sites
B7: G-CSF variant K16/34/40R S62K conjugated to SPA-PEG 5000 (ligand)
chain: B1 chain with K16R, K34R, K40R, S62K
modifications: SPA-PEG 5000 conjugated to the available PEGylation sites
B8: G-CSF variant K16/34/40R S62K, non-conjugated (ligand)
chain: B1 chain with K16R, K34R, K40R, S62K
B9: G-CSF variant K16/23/34R, non-conjugated (ligand)
chain: B1 chain with K16R, K23R, K34R
B10: G-CSF variant K16/34/40R S53K, non-conjugated (ligand)
chain: B1 chain with K16R, K34R, K40R, S53K
B11: G-CSF variant K16/23/34R conjugated to SPA-PEG 5000 (ligand)
chain: B1 chain with K16R, K23R, K34R
modifications: SPA-PEG 5000 conjugated to the available PEGylation sites
B12: G-CSF variant K16/23/40R, non-conjugated (ligand)
chain: B1 chain with K16R, K23R, K40R
B13: G-CSF variant K16/34/40R E46K conjugated to SPA-PEG 5000 (ligand)
chain: B1 chain with K16R, K34R, K40R, E46K
modifications: SPA-PEG 5000 conjugated to the available PEGylation sites
B14: G-CSF variant K16/40R conjugated to SPA-PEG 5000 (ligand)
chain: B1 chain with K16R, K40R
modifications: SPA-PEG 5000 conjugated to the available PEGylation sites
B15: G-CSF variant K16/34/40R, non-conjugated (ligand)
chain: B1 chain with K16R, K34R, K40R
B16: G-CSF variant K16/34/40R L3K conjugated to SPA-PEG 5000 (ligand)
chain: B1 chain with L3K, K16R, K34R, K40R
modifications: SPA-PEG 5000 conjugated to the available PEGylation sites
B17: G-CSF variant K16/34/40R conjugated to SPA-PEG 5000 (ligand)
chain: B1 chain with K16R, K34R, K40R
modifications: SPA-PEG 5000 conjugated to the available PEGylation sites
B18: G-CSF variant K16/34/40R S66K, non-conjugated (ligand)
chain: B1 chain with K16R, K34R, K40R, S66K
B19: G-CSF variant K16/34/40R L3K, non-conjugated (ligand)
chain: B1 chain with L3K, K16R, K34R, K40R
B20: G-CSF variant K16/23/34/40R, non-conjugated (ligand)
chain: B1 chain with K16R, K23R, K34R, K40R

This test deals with T1, human G-CSF receptor. The test can be described thus: cell-based or functional assay.
As to B1, the “EC50 (% of hG-CSF) non-conjugated” value is 100 % of hG-CSF.

Regarding B2, the “EC50 (% of hG-CSF) conjugated to SPA-PEG 5000” value (from here on “EC50 (% of hG-CSF) conjugated”) is 0.1 % of hG-CSF.

With B3, the “EC50 (% of hG-CSF) conjugated” value was 0.5 % of hG-CSF.

Turning to B4, the “EC50 (% of hG-CSF) non-conjugated” value is 10 % of hG-CSF.

For the molecule B5, the “EC50 (% of hG-CSF) conjugated” value was 5 % of hG-CSF.

In the case of B6, the “EC50 (% of hG-CSF) conjugated” value was 15 % of hG-CSF.

For B7, the “EC50 (% of hG-CSF) conjugated” value is 0.5 % of hG-CSF.

Consider B8, for which the “EC50 (% of hG-CSF) non-conjugated” value was 10 % of hG-CSF.

Turning to B9, the “EC50 (% of hG-CSF) non-conjugated” value was 50 % of hG-CSF.

For B10, the “EC50 (% of hG-CSF) non-conjugated” value was 5 % of hG-CSF.

With B11, the “EC50 (% of hG-CSF) conjugated” value is 10 % of hG-CSF.

With B12, the “EC50 (% of hG-CSF) non-conjugated” value is 50 % of hG-CSF.

In the case of B13, the “EC50 (% of hG-CSF) conjugated” value was 1 % of hG-CSF.

Take B14: the “EC50 (% of hG-CSF) conjugated” value is 5 % of hG-CSF.

With B15, the “EC50 (% of hG-CSF) non-conjugated” value is 35 % of hG-CSF.

As for B16, the “EC50 (% of hG-CSF) conjugated” value is 25 % of hG-CSF.

For the molecule B17, the “EC50 (% of hG-CSF) conjugated” value was 30 % of hG-CSF.

For the molecule B18, the “EC50 (% of hG-CSF) non-conjugated” value is 20 % of hG-CSF.

As to B19, the “EC50 (% of hG-CSF) non-conjugated” value is 50 % of hG-CSF.

Consider B20, for which the “EC50 (% of hG-CSF) non-conjugated” value was 20 % of hG-CSF.

(Values after US20030118612A1 (MAXYGEN, published 2003).)
